# B1: ZNF8 (parent)
# chain: RIHTGERPYMCKECGKAFSQNSSL
# Variants of: B1
# Test: protein stability index of a GFP-peptide fusion (GPS, HEK-293T) (PSI 1-6); higher = more stable
# Details: c terminus: a fixed tail appended
# 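Also: lentivirally expressed fusions sorted by FACS into six bins by GFP to DsRed ratio, PSI derived from sequencing read proportions per bin multiplied by bin number.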
row,Variant,protein stability index
1,RIHTGERPYMCKECGKAGSQNSSL,3.35
2,RIHTGERPYMCKECGKAVSQNSSL,2.83
3,RIHTGERPYMCKECGKAQSQNSSL,2.79
4,RIHTGERPYMCKECGKAISQNSSL,2.53
5,RIHTGERPYMCKECGKATSQNSSL,2.85
6,RIHTGERPYMCKECGKAKSQNSSL,3.29
7,RIHTGERPYMCKECGKAMSQNSSL,2.76
8,RIHTGERPYMCKECGKALSQNSSL,2.44
9,RIHTGERPYMCKECGKADSQNSSL,3.84
10,RIHTGERPYMCKECGKAWSQNSSL,1.99
11,RIHTGERPYMCKECGKAPSQNSSL,3.45
12,RIHTGERPYMCKECGKAYSQNSSL,2.39
13,RIHTGERPYMCKECGKAESQNSSL,3.64
14,RIHTGERPYMCKECGKANSQNSSL,3.83
15,RIHTGERPYMCKECGKACSQNSSL,3.03
16,RIHTGERPYMCKECGKARSQNSSL,3.25
17,RIHTGERPYMCKECGKASSQNSSL,3.57
18,RIHTGERPYMCKECGKAASQNSSL,2.93
19,RIHTGERPYMCKECGKAHSQNSSL,3.59
20,RIHTGERPYMCKENGKAFSQNSSL,3.15
21,RIHTGERPYMCKELGKAFSQNSSL,2.42
22,RIHTGERPYMCKEMGKAFSQNSSL,2.29
23,RIHTGERPYMCKERGKAFSQNSSL,2.51
24,RIHTGERPYMCKEIGKAFSQNSSL,1.93

row,Variant,protein stability index
1,RIHTGERPYMCKEPGKAFSQNSSL,2.99
2,RIHTGERPYMCKEVGKAFSQNSSL,2.72
3,RIHTGERPYMCKEWGKAFSQNSSL,2.12
4,RIHTGERPYMCKEGGKAFSQNSSL,3.18
5,RIHTGERPYMCKESGKAFSQNSSL,2.74
6,RIHTGERPYMCKETGKAFSQNSSL,2.81
7,RIHTGERPYMCKEHGKAFSQNSSL,2.5
8,RIHTGERPYMCKEYGKAFSQNSSL,2.2
9,RIHTGERPYMCKEQGKAFSQNSSL,3
10,RIHTGERPYMCKEKGKAFSQNSSL,3.58
11,RIHTGERPYMCKECGKTFSQNSSL,3.29
12,RIHTGERPYMCKECGKMFSQNSSL,2.67
13,RIHTGERPYMCKECGKQFSQNSSL,3.01
14,RIHTGERPYMCKECGKNFSQNSSL,2.99
15,RIHTGERPYMCKECGKRFSQNSSL,3.04
16,RIHTGERPYMCKECGKFFSQNSSL,2.42
17,RIHTGERPYMCKECGKEFSQNSSL,2.95
18,RIHTGERPYMCKECGKHFSQNSSL,2.42
19,RIHTGERPYMCKECGKWFSQNSSL,2.65
20,RIHTGERPYMCKECGKIFSQNSSL,2.41
21,RIHTGERPYMCKECGKPFSQNSSL,2.09
22,RIHTGERPYMCKECGKLFSQNSSL,2.47
23,RIHTGERPYMCKECGKYFSQNSSL,2.37
24,RIHTGERPYMCKECGKKFSQNSSL,3

row,Variant,protein stability index
1,RIHTGERPYMCKECGKGFSQNSSL,2.42
2,RIHTGERPYMCKECGKCFSQNSSL,2.46
3,RIHTGERPYMCKECGKDFSQNSSL,2.84
4,RIHTGERPYMCKECGKVFSQNSSL,3.24
5,RIHTGERPYMCKECGKSFSQNSSL,2.94
6,RIHTGERPYMCKECGKAFPQNSSL,1.81
7,RIHTGERPYMCKECGKAFTQNSSL,2.35
8,RIHTGERPYMCKECGKAFCQNSSL,3.28
9,RIHTGERPYMCKECGKAFQQNSSL,2.77
10,RIHTGERPYMCKECGKAFLQNSSL,3.17
11,RIHTGERPYMCKECGKAFIQNSSL,2.01
12,RIHTGERPYMCKECGKAFMQNSSL,2.24
13,RIHTGERPYMCKECGKAFYQNSSL,2.18
14,RIHTGERPYMCKECGKAFWQNSSL,1.47
15,RIHTGERPYMCKECGKAFAQNSSL,2.66
16,RIHTGERPYMCKECGKAFRQNSSL,1.91
17,RIHTGERPYMCKECGKAFFQNSSL,2.02
18,RIHTGERPYMCKECGKAFHQNSSL,2.8
19,RIHTGERPYMCKECGKAFVQNSSL,2
20,RIHTGERPYMCKECGKAFDQNSSL,3.09
21,RIHTGERPYMCKECGKAFEQNSSL,3.26
22,RIHTGERPYMCKECGKAFGQNSSL,2.6
23,RIHTGERPYMCKECGKAFNQNSSL,2.31
24,RIHTGERPYMCKECGKAFKQNSSL,2.27

row,Variant,protein stability index
1,RIHTGERPYMCKECGKAFSQNSFL,1.77
2,RIHTGERPYMCKECGKAFSQNSRL,1.66
3,RIHTGERPYMCKECGKAFSQNSML,1.98
4,RIHTGERPYMCKECGKAFSQNSHL,2.9
5,RIHTGERPYMCKECGKAFSQNSAL,2.26
6,RIHTGERPYMCKECGKAFSQNSLL,1.77
7,RIHTGERPYMCKECGKAFSQNSYL,2.03
8,RIHTGERPYMCKECGKAFSQNSDL,2.8
9,RIHTGERPYMCKECGKAFSQNSIL,2.02
10,RIHTGERPYMCKECGKAFSQNSNL,2.44
11,RIHTGERPYMCKECGKAFSQNSGL,2.3
12,RIHTGERPYMCKECGKAFSQNSQL,2.58
13,RIHTGERPYMCKECGKAFSQNSWL,1.94
14,RIHTGERPYMCKECGKAFSQNSPL,2.48
15,RIHTGERPYMCKECGKAFSQNSCL,2.75
16,RIHTGERPYMCKECGKAFSQNSTL,2.27
17,RIHTGERPYMCKECGKAFSQNSEL,2.88
18,RIHTGERPYMCKECGKAFSQNSVL,2.24
19,RIHTGERPYMCKECGKAFSQNSKL,3.26
20,RIHTGERPYMCKECGKAFSQNSSC,3.17
21,RIHTGERPYMCKECGKAFSQNSSA,2.99
22,RIHTGERPYMCKECGKAFSQNSSD,3.56
23,RIHTGERPYMCKECGKAFSQVSSL,1.4
24,RIHTGERPYMCKECGKAFSQRSSL,2.26

row,Variant,protein stability index
1,RIHTGERPYMCKECGKAFSQYSSL,1.5
2,RIHTGERPYMCKECGKAFSQASSL,1.94
3,RIHTGERPYMCKECGKAFSQCSSL,2.46
4,RIHTGERPYMCKECGKAFSQPSSL,2.44
5,RIHTGERPYMCKECGKAFSQHSSL,2.4
6,RIHTGERPYMCKECGKAFSQGSSL,2.71
7,RIHTGERPYMCKECGKAFSQMSSL,2.17
8,RIHTGERPYMCKECGKAFSQWSSL,1.7
9,RIHTGERPYMCKECGKAFSQDSSL,3.08
10,RIHTGERPYMCKECGKAFSQTSSL,2.66
11,RIHTGERPYMCKECGKAFSQLSSL,1.86
12,RIHTGERPYMCKECGKAFSQKSSL,2.75
13,RIHTGERPYMCKECGKAFSQQSSL,2.48
14,RIHTGERPYMCKECGKAFSQISSL,2.04
15,RIHTGERPYMCKECGKAFSQSSSL,2.59
16,RIHTGERPYMCKECGKAFSQFSSL,1.8
17,RIHTGERPYMCKECGKAFSQESSL,2.65
18,RIHTGERPYMCKECGKAFSQNESL,1.98
19,RIHTGERPYMCKECGKAFSQNQSL,2.58
20,RIHTGERPYMCKECGKAFSQNASL,2.49
21,RIHTGERPYMCKECGKAFSQNDSL,2.4
22,RIHTGERPYMCKECGKAFSQNMSL,2.22
23,RIHTGERPYMCKECGKAFSQNVSL,1.9
24,RIHTGERPYMCKECGKAFSQNKSL,2.4

row,Variant,protein stability index
1,RIHTGERPYMCKECGKAFSQNCSL,3.07
2,RIHTGERPYMCKECGKAFSQNRSL,2.19
3,RIHTGERPYMCKECGKAFSQNPSL,2.6
4,RIHTGERPYMCKECGKAFSQNISL,1.91
5,RIHTGERPYMCKECGKAFSQNNSL,2.37
6,RIHTGERPYMCKECGKAFSQNTSL,2.34
7,RIHTGERPYMCKECGKAFSQNFSL,1.89
8,RIHTGERPYMCKECGKAFSQNGSL,2.68
9,RIHTGERPYMCKECGKAFSQNWSL,2.22
10,RIHTGERPYMCKECGKAFSQNHSL,2
11,RIHTGERPYMCKECGKAFSQNLSL,2.05
12,RIHTGERPYMCKECGKAFSQNYSL,1.8
13,RIHTGERPYMCKECGIAFSQNSSL,2.08
14,RIHTGERPYMCKECGCAFSQNSSL,1.82
15,RIHTGERPYMCKECGQAFSQNSSL,2.27
16,RIHTGERPYMCKECGFAFSQNSSL,2.52
17,RIHTGERPYMCKECGNAFSQNSSL,1.8
18,RIHTGERPYMCKECGGAFSQNSSL,2.41
19,RIHTGERPYMCKECGHAFSQNSSL,2.29
20,RIHTGERPYMCKECGSAFSQNSSL,2.05
21,RIHTGERPYMCKECGAAFSQNSSL,2.24
22,RIHTGERPYMCKECGLAFSQNSSL,1.71
23,RIHTGERPYMCKECGYAFSQNSSL,1.61
24,RIHTGERPYMCKECGMAFSQNSSL,2.63

row,Variant,protein stability index
1,RIHTGERPYMCKECGVAFSQNSSL,1.71
2,RIHTGERPYMCKECGTAFSQNSSL,2.73
3,RIHTGERPYMCKECGRAFSQNSSL,2.3
4,RIHTGERPYMCKECGDAFSQNSSL,2.52
5,RIHTGERPYMCKECGEAFSQNSSL,2.97
6,RIHTGERPYMCKECGPAFSQNSSL,2.06
7,RIHTGERPYMCKECGWAFSQNSSL,2.66
8,RIHTGERPYMCKECGKAFSTNSSL,2.61
9,RIHTGERPYMCKECGKAFSLNSSL,2.1
10,RIHTGERPYMCKECGKAFSMNSSL,2.21
11,RIHTGERPYMCKECGKAFSSNSSL,2.2
12,RIHTGERPYMCKECGKAFSKNSSL,2.94
13,RIHTGERPYMCKECGKAFSFNSSL,1.83
14,RIHTGERPYMCKECGKAFSVNSSL,1.79
15,RIHTGERPYMCKECGKAFSWNSSL,2.5
16,RIHTGERPYMCKECGKAFSHNSSL,2.49
17,RIHTGERPYMCKECGKAFSYNSSL,2.06
18,RIHTGERPYMCKECGKAFSINSSL,2.4
19,RIHTGERPYMCKECGKAFSENSSL,3.19
20,RIHTGERPYMCKECGKAFSRNSSL,2.54
21,RIHTGERPYMCKECGKAFSNNSSL,2.72
22,RIHTGERPYMCKECGKAFSPNSSL,2.74
23,RIHTGERPYMCKECGKAFSDNSSL,2.37
24,RIHTGERPYMCKECGKAFSGNSSL,2.83

row,Variant,protein stability index
1,RIHTGERPYMCKECGKAFSANSSL,2.65
2,RIHTGERPYMCKECGKAFSCNSSL,2.54
3,RIHTGERPYMCKECSKAFSQNSSL,3.2
4,RIHTGERPYMCKECPKAFSQNSSL,2.54
5,RIHTGERPYMCKECLKAFSQNSSL,3.05
6,RIHTGERPYMCKECYKAFSQNSSL,1.62
7,RIHTGERPYMCKECCKAFSQNSSL,2.16
8,RIHTGERPYMCKECHKAFSQNSSL,2.32
9,RIHTGERPYMCKECQKAFSQNSSL,3.26
10,RIHTGERPYMCKECFKAFSQNSSL,2.09
11,RIHTGERPYMCKECMKAFSQNSSL,2.67
12,RIHTGERPYMCKECRKAFSQNSSL,2.76
13,RIHTGERPYMCKECKKAFSQNSSL,2.99
14,RIHTGERPYMCKECEKAFSQNSSL,3.46
15,RIHTGERPYMCKECNKAFSQNSSL,2.33
16,RIHTGERPYMCKECIKAFSQNSSL,1.98
17,RIHTGERPYMCKECTKAFSQNSSL,3.05
18,RIHTGERPYMCKECDKAFSQNSSL,3.25
19,RIHTGERPYMCKECAKAFSQNSSL,3.37
20,RIHTGERPYMCKECVKAFSQNSSL,2.33
